Target: Galectin-3-binding protein in conditioned media of HEK293T cells expressing rSulf-2 (human (endogenous in HEK293T)) (UniProt Q08380)
Test: affinity purification with mass spectrometry

Chain of UniProt Q08380 (Q08380 19-585): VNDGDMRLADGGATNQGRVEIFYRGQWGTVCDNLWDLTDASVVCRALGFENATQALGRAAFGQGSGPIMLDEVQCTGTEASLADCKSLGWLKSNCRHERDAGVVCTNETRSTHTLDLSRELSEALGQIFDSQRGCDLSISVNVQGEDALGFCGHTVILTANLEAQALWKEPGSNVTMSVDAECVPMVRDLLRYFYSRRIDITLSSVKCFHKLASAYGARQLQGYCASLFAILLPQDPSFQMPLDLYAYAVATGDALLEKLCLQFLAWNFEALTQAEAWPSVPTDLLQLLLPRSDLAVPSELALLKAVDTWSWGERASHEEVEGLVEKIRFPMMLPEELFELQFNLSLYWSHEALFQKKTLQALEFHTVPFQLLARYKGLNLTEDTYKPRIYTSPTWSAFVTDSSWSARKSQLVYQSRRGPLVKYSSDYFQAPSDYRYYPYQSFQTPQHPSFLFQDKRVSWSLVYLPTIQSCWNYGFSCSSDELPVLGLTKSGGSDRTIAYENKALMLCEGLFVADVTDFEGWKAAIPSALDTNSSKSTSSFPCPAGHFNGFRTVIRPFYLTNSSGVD

**Q.** With “rSulf-2 (HEK293T lentiviral) treated with chondroitinase ABC (enzyme)” as the substance, how does the fold change of the Sulf-2/LG3BP peak-area ratio against the untreated control read?
**A.** Its fold change of the Sulf-2/LG3BP peak-area ratio against the untreated control is 3 fold.

From article PMC10769223
